Measured values: PMC5963807, “Assembly-hub function of ER-localized SNARE proteins in biogenesis of tombusvirus replication compartment” (PLoS Pathogens, 2018)

B1: His6-Osh6p (natural protein, yeast (S. cerevisiae), UniProt Q02201 1-448, looked up)
chain: MGSKKLTVGSDSHRLSKSSFSSNKSSHSATKDQPIDTDDIDEDDESGHNIILNIISQLRPGCDLTRITLPTFILEKKSMLERVTNQLQFPEFLLQAHSEKDPLKRFLYVMKWYLAGWHIAPKAVKKPLNPVLGEYFTAYWDLPNKQQAYYISEQTSHHPPECAYFYMIPESSIRVDGVVIPKSRFLGNSSAAMMDGSTVLQFLDIKDGNGKPEKYVLTQPNVYVRGILFGKMRIELGDHMIIKSPNFQADIEFKTKGYVFGTYDAIEGTVKDYDGNAYYEISGKWNDVMYLKDLKQPRSSPKVFLDTHKESPLRPKVRPLSEQGEYESRKLWKKVTDALAVRNHPVATEEKFQIEDHQRQLAKKRIEDGVEFHPKLFRRSKPGEDLDYCIYKNIPVDEDPEKQIRSILQIAPILPGQQFTDKFFIPAFEKIKSQKKMIENEKQNPAKQ
notes: also called 6xHis-tagged Osh6; Osh6 ORP (OSBP1-like); source: yeast, co-expressed, detergent-solubilized membrane fraction; not shown: His6, N-terminal, kept
B2: Tdh2p (GAPDH) (enzyme, yeast (S. cerevisiae), UniProt P00358 1-332, looked up)
chain: MVRVAINGFGRIGRLVMRIALQRKNVEVVALNDPFISNDYSAYMFKYDSTHGRYAGEVSHDDKHIIVDGHKIATFQERDPANLPWASLNIDIAIDSTGVFKELDTAQKHIDAGAKKVVITAPSSTAPMFVMGVNEEKYTSDLKIVSNASCTTNCLAPLAKVINDAFGIEEGLMTTVHSMTATQKTVDGPSHKDWRGGRTASGNIIPSSTGAAKAVGKVLPELQGKLTGMAFRVPTVDVSVVDLTVKLNKETTYDEIKKVVKAAAEGKLKGVLGYTEDAVVSSDFLGDSNSSIFDAAAGIQLSPKFVKLVSWYDNEYGYSTRVVDLVEHVAKA
notes: Tdh2p glyceraldehyde-3-phosphate dehydrogenase of yeast; also called Tdh2 GAPDH; source: yeast, detergent-solubilized membrane fraction
B3: Pbp2 RNA binding protein (natural protein, UniProt P38151 1-413, looked up)
chain: MSTETTKPSITTTPTTVLVSPNTLKRKKGEDTSEEQLEAEIKRVALKDADSHSDNDHDSPDNVPSDVHLRMLCLVKHASLIVGHKGATISRIKSETSARINISNNIRGVPERIVYVRGTCDDVAKAYGMIVRALLEEHGNEDNGEDIEISINLLIPHHLMGCIIGKRGSRLREIEDLSAAKLFASPNQLLLSNDRILTINGVPDAIHIATFYISQTLLNFQMESPQKNVKRSIYYQPTQFNSVLIDHSQPNTIFHQRNHQYHPSDKLLSYKPNKNLPISSTLLSMATPQYTTASVANATAFQPNFVIPNVTVLDGPVISPAPGNHLLMNFVQQEIFIDEKFVGNVIGKDGKHINSVKESTGCSIIIQDPVEGSSERRLTIRGTFMASQAAIMLISNKIEIDRSNAERKRRSPL
notes: source: yeast, detergent-solubilized membrane fraction
B4: Tef1 eEF1A translation elongation factor (natural protein, yeast (S. cerevisiae), UniProt P02994 1-458, looked up)
chain: MGKEKSHINVVVIGHVDSGKSTTTGHLIYKCGGIDKRTIEKFEKEAAELGKGSFKYAWVLDKLKAERERGITIDIALWKFETPKYQVTVIDAPGHRDFIKNMITGTSQADCAILIIAGGVGEFEAGISKDGQTREHALLAFTLGVRQLIVAVNKMDSVKWDESRFQEIVKETSNFIKKVGYNPKTVPFVPISGWNGDNMIEATTNAPWYKGWEKETKAGVVKGKTLLEAIDAIEQPSRPTDKPLRLPLQDVYKIGGIGTVPVGRVETGVIKPGMVVTFAPAGVTTEVKSVEMHHEQLEQGVPGDNVGFNVKNVSVKEIRRGNVCGDAKNDPPKGCASFNATVIVLNHPGQISAGYSPVLDCHTAHIACRFDELLEKNDRRSGKKLEDHPKFLKSGDAALVKFVPSKPMCVEAFSEYPPLGRFAVRDMRQTVAVGVIKSVDKTEKAAKVTKAAQKAAKK
notes: Tef1 eEF1A translation elongation factor of yeast; source: yeast, detergent-solubilized membrane fraction
B5: Vps4p AAA+ ATPase (enzyme, yeast (S. cerevisiae), UniProt P52917 1-437, looked up)
chain: MSTGDFLTKGIELVQKAIDLDTATQYEEAYTAYYNGLDYLMLALKYEKNPKSKDLIRAKFTEYLNRAEQLKKHLESEEANAAKKSPSAGSGSNGGNKKISQEEGEDNGGEDNKKLRGALSSAILSEKPNVKWEDVAGLEGAKEALKEAVILPVKFPHLFKGNRKPTSGILLYGPPGTGKSYLAKAVATEANSTFFSVSSSDLVSKWMGESEKLVKQLFAMARENKPSIIFIDEVDALTGTRGEGESEASRRIKTELLVQMNGVGNDSQGVLVLGATNIPWQLDSAIRRRFERRIYIPLPDLAARTTMFEINVGDTPCVLTKEDYRTLGAMTEGYSGSDIAVVVKDALMQPIRKIQSATHFKDVSTEDDETRKLTPCSPGDDGAIEMSWTDIEADELKEPDLTIKDFLKAIKSTRPTVNEDDLLKQEQFTRDFGQEGN
notes: Vps4p AAA+ ATPase (an ESCRT protein) of yeast; also called Vps4 AAA ATPase; source: yeast, detergent-solubilized membrane fraction
B6: Cdc34 E2 enzyme (enzyme, yeast (S. cerevisiae), UniProt P14682 1-295, looked up)
chain: MSSRKSTASSLLLRQYRELTDPKKAIPSFHIELEDDSNIFTWNIGVMVLNEDSIYHGGFFKAQMRFPEDFPFSPPQFRFTPAIYHPNVYRDGRLCISILHQSGDPMTDEPDAETWSPVQTVESVLISIVSLLEDPNINSPANVDAAVDYRKNPEQYKQRVKMEVERSKQDIPKGFIMPTSESAYISQSKLDEPESNKDMADNFWYDSDLDDDENGSVILQDDDYDDGNNHIPFEDDDVYNYNDNDDDDERIEFEDDDDDDDDSIDNDSVMDRKQPHKAEDESEDVEDVERVSKKI
notes: Cdc34 ubiquitin-conjugating enzyme of yeast; also called Cdc34 ubiquitin-conjugating enzyme; source: yeast, detergent-solubilized membrane fraction
B7: eIF4AIII-like RH2 DEAD-box helicase (enzyme, UniProt Q94A52 1-408, looked up)
chain: MATANPGRGGGRRGGGAMDDDKLVFETTDGIEPITSFNDMGIKEDVLRGVYEYGFEKPSAIQQRAVMPILQGRDVIAQAQSGTGKTSMIALSVCQVVDTSSREVQALILSPTRELATQTEKTIQAIGLHANIQAHACIGGNSVGEDIRKLEHGVHVVSGTPGRVCDMIKRRSLRTRAIKLLILDESDEMLSRGFKDQIYDVYRYLPPDLQVCLVSATLPHEILEMTSKFMTEPVKILVKRDELTLEGIKQFFVAVEKEEWKFDTLCDLYDTLTITQAVIFCNTKRKVDYLSEKMRSHNFTVSSMHGDMPQKERDAIMNEFRSGDSRVLITTDVWARGIDVQQVSLVINYDLPNNRELYIHRIGRSGRFGRKGVAINFVKSDDIKILRDIEQYYSTQIDEMPMNVADLI
notes: eIF4AIII-like RH2 DEAD-box helicase; source: yeast, detergent-solubilized membrane fraction
B8: Vps23p ESCRT factor (natural protein, yeast (S. cerevisiae), UniProt P25604 1-385, looked up)
chain: MSANGKISVPEAVVNWLFKVIQPIYNDGRTTFHDSLALLDNFHSLRPRTRVFTHSDGTPQLLLSIYGTISTGEDGSSPHSIPVIMWVPSMYPVKPPFISINLENFDMNTISSSLPIQEYIDSNGWIALPILHCWDPAAMNLIMVVQELMSLLHEPPQDQAPSLPPKPNTQLQQEQNTPPLPPKPKSPHLKPPLPPPPPPQPASNALDLMDMDNTDISPTNHHEMLQNLQTVVNELYREDVDYVADKILTRQTVMQESIARFHEIIAIDKNHLRAVEQAIEQTMHSLNAQIDVLTANRAKVQQFSSTSHVDDEDVNSIAVAKTDGLNQLYNLVAQDYALTDTIECLSRMLHRGTIPLDTFVKQGRELARQQFLVRWHIQRITSPLS
notes: Vps23p ESCRT-I factor of yeast; also called Vps23 ESCRT I; source: yeast, detergent-solubilized membrane fraction
B9: Rpn11 deubiquitinase (enzyme, yeast (S. cerevisiae), UniProt P43588 1-306, looked up)
chain: MERLQRLMMNSKVGSADTGRDDTKETVYISSIALLKMLKHGRAGVPMEVMGLMLGEFVDDYTVNVVDVFAMPQSGTGVSVEAVDDVFQAKMMDMLKQTGRDQMVVGWYHSHPGFGCWLSSVDVNTQKSFEQLNSRAVAVVVDPIQSVKGKVVIDAFRLIDTGALINNLEPRQTTSNTGLLNKANIQALIHGLNRHYYSLNIDYHKTAKETKMLMNLHKEQWQSGLKMYDYEEKEESNLAATKSMVKIAEQYSKRIEEEKELTEEELKTRYVGRQDPKKHLSETADETLENNIVSVLTAGVNSVAIK
notes: Rpn11 deubiquitinase, co-opted cellular host factor in yeast; source: yeast, detergent-solubilized membrane fraction
B10: Pex19p shuttle protein (natural protein, yeast (S. cerevisiae), UniProt Q07418 1-342, looked up)
chain: MNENEYDNFDDLDDLLDEDPTKLDEAEPDDVQAKGSVYNDSENKEKNAESKDSDGVQVANESEEDPELKEMMVDLQNEFANLMKNNGNENNVKTEDFNKLISALEEAAKVPHQQMEQGCSSLKSNSTDKGTVNGSNPGFKNIVSNTLDRLKENGNKVDTSLAEETKESQRSGQNNNIDDILSQLLDQMVASGGKESAENQFDLKDGEMDDAITKILDQMTSKEVLYEPMKEMRSEFGVWFQENGENEEHKEKIGTYKRQFNIVDEIVNIYELKDYDELKHKDRVTELLDELEQLGDSPIRSANSPLKHGNEEEELMKMLEIDGNDPNLGNLDKELTDGCKQQ
notes: Pex19p peroxisome membrane-biogenesis protein of yeast; source: yeast, detergent-solubilized membrane fraction
B11: His6-VAP27-1 (natural protein, UniProt Q8VZ95 1-256, looked up)
chain: MSNIDLIGMSNRDLIGMSNSELLTVEPLDLQFPFELKKQISCSLYLTNKTDNNVAFKVKTTNPKKYCVRPNTGVVLPRSTCEVLVTMQAQKEAPSDMQCKDKFLLQGVIASPGVTAKEVTPEMFSKEAGHRVEETKLRVTYVAPPRPPSPVHEGSEEGSSPRASVSDNGHGSEFSFERFIVDNKAGHQENTSEARALITKLTEEKQSAIQLNNRLQRELDQLRRESKKSQSGGIPFMYVLLVGLIGLILGYIMKRT
notes: VAP27-1, plant ortholog of the yeast Scs2 VAP protein; also called 6xHis-tagged VAP27-1 (Scs2 ortholog); Vap27-1 (Scs2-like); source: yeast, co-expressed, detergent-solubilized membrane fraction; not shown: His6, N-terminal, kept

What follows are binders tested against T1, FLAG/His6-p33 (Tomato bushy stunt virus, UniProt P15962 1-296) (assay: co-IP; FLAG-p33 purified from detergent-solubilized membrane fractions of wt yeast and of yeast co-expressing Ufe1ΔTM; co-purified cellular proteins measured by Western blotting; amount from WT yeast taken as 100%). Conditions: partners not purified.
T1 construct: p33 replication protein of Tomato bushy stunt virus (TBSV); also called FLAG-p33; FLAG-tagged p33; source: yeast, co-expressed, detergent-solubilized membrane fraction; not shown: FLAG, N-terminal, kept; His6, N-terminal, kept
T1 sequence: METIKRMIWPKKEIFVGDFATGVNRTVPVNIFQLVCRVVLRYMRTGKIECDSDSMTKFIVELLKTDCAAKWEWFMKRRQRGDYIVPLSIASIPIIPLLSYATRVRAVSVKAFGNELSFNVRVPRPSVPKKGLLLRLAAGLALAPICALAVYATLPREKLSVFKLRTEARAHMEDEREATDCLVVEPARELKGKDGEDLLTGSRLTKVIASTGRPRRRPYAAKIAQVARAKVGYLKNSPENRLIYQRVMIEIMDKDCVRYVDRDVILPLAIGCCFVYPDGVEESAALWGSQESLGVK

Point of comparison: B11, “percentage of host protein co-purified with p33 from yeast expressing Ufe1ΔTM (WT yeast = 100%)” value 68 ± 30%. Against it:
- B1 — within error, 59 ± 24%
- B2 — within error, 64 ± 17%
- B3 — higher, 122 ± 15%
- B4 — within error, 67 ± 25%
- B5 — within error, 44 ± 27%
- B6 — within error, 109 ± 14%
- B7 — within error, 70 ± 18%
- B8 — higher, 106 ± 7%
- B9 — within error, 103 ± 6%
- B10 — within error, 56 ± 13%

The binders below were run against T1, FLAG/His6-p33 (assay: co-IP; viral replicase purified by FLAG affinity from detergent-solubilized membrane fractions of yeasts expressing FLAG-p33, FLAG-p92 and the repRNA; WT yeast or yeast depleted of Ufe1p (GALS::UFE1) or Use1p (GAL1::USE1) on glucose; Western blot with anti-6xHis). Conditions: partners not purified.

Point of comparison: B1, “fold reduction of the co-purified amount in Ufe1p- or Use1p-depleted yeast against WT yeast” value ~7 fold. Against it:
- B11 — lower, ~5 fold

Target: T1, FLAG/His6-p33
Test: co-IP; FLAG-p33 purified from detergent-solubilized membrane fractions of wt yeast and of yeast co-expressing Ufe1ΔTM; co-purified cellular proteins measured by Western blotting; amount from WT yeast taken as 100%
Conditions: partners not purified
Remark: another data set of the same source

For B1, the “fold reduction of the co-purified amount in yeast expressing Ufe1ΔTM against wt yeast” value was ~3 fold.
